Experimental data published in the nanobody polyreactivity screen of Harvey et al. (2022).

assay: yeast display, Sf9 membrane polyspecificity reagent, FACS + sequencing; frameworks hold sequencing errors
Outline: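 A nanobody's polyreactivity label depends on the gate it was sorted from. Yeast display cells were stained with 10% biotinylated, detergent-solubilized Sf9 membrane reagent for 1 hour at 4 °C, enriched on streptavidin microbeads and sorted by FACS. The low and high (top ~1%) gates were set on anti-HA fluorescence for expression and streptavidin fluorescence for reagent binding.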

Sequence | polyreactivity (PSR sort gate)
QVQLVESGGGLVQAGGSLRLSCAASGSTFVRYAMGWYRQAPGKERELVAGISSGDRTYYADSVKGRFTISRDNAKNTVYLQMNSLKPEDTAVYYCNARPVYLLEGYYWGQGTQVTVSS | low polyreactivity
QVQLVESGGGLVQAGGSLRLSCAASGSTFVRYAMGWYRQEPGKERELVAAISKSGGSTYYADSVKGRFTISRDNAKNTVYLQMNSLKPEDTAVYYCNADVYKNSKFRIMGYWGQGTQVTVSS | low polyreactivity
QVQLVESGGGLVQAGGSLRLSCAASGSTFVRYVMGWYRQAPGKERELVAAISRRGGSTYYADSVKGRFTISRDNAKNTVYLQMHSLKPEDSAVYYCARTVGYSTLLESVSWGQGTQLTVSS | high polyreactivity
QVQLVESGGGLVQAGGSLRLSCAASGSTFVSNAMGWYRPAPGKERELVAAISTSGGSTYYADSVKGRFTISRDNAKNTVYLLMNSLKPEDTAVYYCAKLLARGFRIWQDYDYWGQGTQVTVSS | low polyreactivity
QVQLVESGGGLVQAGGSLRLSCAASGSTFVSNAMGWYRQAPGKERELVAGISWSGGSTYYADSVKGRFTISRDNAKNTVYLQMHSLKPEDTAVYYCNAVYRPRQFDYWGQGTQVTVSS | low polyreactivity
QVQLVESGGGLVQAGGSLRLSCAASGSTFVSNAMGWYRQAPGKERELVASISQSGGGTDYADSVKGRFTISRDNAKNTVYLQMNSLKPEDTAVYYCAADRVPVQAPYDYWGQGTQVTVSS | high polyreactivity
QVQLVESGGGLVQAGGSLRLSCAASGSTFVSNGMGWYRQAPGKERELVAAITRGGSTKYADSVKGRFTISRDNAKNTVYLQMNSLKPEDTAVYYCAKRLYTRPGWYDYWGQGTQVTVSS | high polyreactivity
QVQLVESGGGLVQAGGSLRLSCAASGSTFVSYAMGWYRQAPGKERELVAAISISDSSTYYADSVKGRFSISRDNAKNTVYLQMNSLKPEDTAVYYCNRYDFWGQGTQVTVSS | low polyreactivity
QVQLVESGGGLVQAGGSLRLSCAASGSTFVSYAMGWYRQAPGKERELVAASSRSGGSTYYADSVKGRFTISRDNAKNTVYLQMNILIPEDTAVYYCAADGRGPSKRNRDYWGQGTQVTVSS | high polyreactivity
QVQLVESGGGLVQAGGSLRLSCAASGSTFVSYAMGWYRQAPGKERELVAGITRRGGTTYYADSVKGRFTISRDNAKNTVYLQMNSLKPEDTAVYYCARYSLYTGYRRYPLDYDYWGQGTQVTVSS | high polyreactivity
QVQLVESGGGLVQAGGSLRLSCAASGSTFVSYDMGWYRQAPGKERELVADISWSGVSTYADSVKGRFTISRDNAKNTVYLQMNSLKPEDTAVYYCATDDARRGYGYGYWGQGTQVTVSS | low polyreactivity
QVQLVESGGGLVQAGGSLRLSCAASGSTFVTNAMGWYRQAPGTEREFVAAISWISTSTYYADSVKGRFTISRDNAKNTVYLQMNSLKPEDTAVYYCNATTFAFSPSLKGAYGYWGQGTQVTVSS | low polyreactivity
QVQLVESGGGLVQAGGSLRLSCAASGSTFVTYAMGCYRQAPGKERELVAVITYSGGNTYYADSVKGRVTISRDNAKNTVYLQMNSLKPEDTAVYDCAAAWLTSRGSRDSHRKYYYWGQGTQVTVSS | high polyreactivity
QVQLVESGGGLVQAGGSLRLSCAASGSTFVTYAMGWYRQAPGKERELVAAIDSGGNTNYADSVKGRFTISRDNAKNTVYLQMNSLKPEDTAVYYCAVRPYELHRLDDQPGGDDYWGQGTQVTVSS | low polyreactivity
QVQLVESGGGLVQAGGSLRLSCAASGSTFVTYGMGWYRQAPGKERELVAAITRDSSTNDADSVKGRFTISRDNAKNTVYLQLNSLKPEDTAVYYCATPRLPNFIGTEYDYWGQGTQVTVSS | low polyreactivity
QVQLVESGGGLVQAGGSLRLSCAASGSTFVVNAMGWYRQAPGKERELVAAIDDGAGDTYYADSVKGRFTISRDNAENTVYLQMNSLKPEDTAVYYCAADTWYQMDYWGQGTQVTVSS | low polyreactivity
QVQLVESGGGLVQAGGSLRLSCAASGSTFVVNVMGWYRQAPGKERELVAAITYRSGSTYYADSVKGSFTISRDNAKNTVYLQMNSLKPEDTAVYYCAAGYYSRYYVAFEYYYWGQGTQVTVSS | high polyreactivity
QVQLVESGGGLVQAGGSLRLSCAASGSTFVVYAMGWYRQAPGKERELVAAIDLSVGDTYYADSVKGRFTISRDNAKNTVYLQMNSLKPEDTAVYYCNVAVYYWRWIYGYWGQGTQVTVSS | low polyreactivity
QVQLVESGGGLVQAGGSLRLSCAASGSTFVWYAMGWYRQAPGKERELVAVINWSAGRTYYADSVKGRFTFSRDTAKNTVYLQMNSLKPEDTAVYYCATRTYYRSRTVGWGKMDYWGQGTQVTVSS | high polyreactivity
QVQLVESGGGLVQAGGSLRLSCAASGSTFVWYDMGWYRQAPGKERELVATITSGGITTYADSVKGRFTISRDNAKNTVYLQMNSPKPEDTAVYYCNADLYYWLRYYDRNEYRGQGTQVTVSS | low polyreactivity
QVQLVESGGGLVQAGGSLRLSCAASGSTFVYNAMGRYRQAPVKERELVAAISSGGSTYYADSVKGRFTISRDNAKNTVYLQMNSLKPEATAVYYCNARGSWRRDKYGTYYRYDYWGQGTQVTVSS | high polyreactivity
QVQLVESGGGLVQAGGSLRLSCAASGSTFVYNAMGWYRQAPGKERELVAAISRGGGITYYADSVKGRFTISRDNAKNTVYLQMNSLKPEDTAVYYCQYLSRGLNTYRSSQGDDDYWGQGTQVTVSS | high polyreactivity

Sequence | polyreactivity (PSR sort gate)
QVQLVESGGGLVQAGGSLRLSCAASGSTFVYNAMGWYRQAPGKERELVASITRSGSSTYYADSVKGRFTISRDNAKNTVYLQMNSLKPEDTAVYYCAVRYSVLSNYRYYYWGQGTQVTVSS | low polyreactivity
QVQLVESGGGLVQAGGSLRLSCAASGSTFVYNARGWYRQAPGKERELVAAISRRGGSTYYADSVKGRFTISRDNAKNTVYLQMNSLKPEDTAVYYCAADQYRTNSYRYDYWGQGTQVTVSS | low polyreactivity
QVQLVESGGGLVQAGGSLRLSCAASGSTFVYNTMGWYRQAPGKERELVAAISKSGTNTLYADSVKGRFTISRDNAKNTVYLQMNSLKPEDTAVYYCAVRSVPRWFTELDYWGQGTQVTVSS | low polyreactivity
QVQLVESGGGLVQAGGSLRLSCAASGSTFVYYAMGGYRQAPGKERELDAAITSSGVRTYYADSVKGRFTISRDNAKNTVYLQMNSLKPEVTAVYYCAKRSTRLYSFTYQGYGYWGQGTQVTVSS | high polyreactivity
QVQLVESGGGLVQAGGSLRLSCAASGSTFVYYAMGWYRQAPGKEREFVAAISISTGSTYYADSVKGRFTISRDNAKNTVYLQMNSLKPEDTAVYYCAVDWFLGGYDDLDYWGQGTQVTVSS | low polyreactivity
QVQLVESGGGLVQAGGSLRLSCAASGSTFVYYAMGWYRQAPGKEREFVAAISTNGGSTYYADSVKGRFTISRDNAKNTVYLQMNSLKPEDTAVYYCAARWYWGQGTQVTVSS | high polyreactivity
QVQLVESGGGLVQAGGSLRLSCAASGSTFVYYDMGGYRPAPGKERELVADISDSGGSTNYADSVKGRFTISRDNAKNTVYLHMNSLKPEDTAVYYCAADSADPTEYDYWGQGTQVTVSS | low polyreactivity
QVQLVESGGGLVQAGGSLRLSCAASGSTFWAYAMGWSRQAPGKERELVAAITSGGSTYADSVKGRFTISRDNAKNTVYLQMNSLKPEDTAVYYCAADVYYSGWWFDYWGQGTQVTVSS | high polyreactivity
QVQLVESGGGLVQAGGSLRLSCAASGSTFWAYVMGWYRQAPGKESELVAAISKSGVRTHYADSVKGRFTISRDNAKNTVYLQMNSLKPEDTAVYYCAAEWSWGPYRFDYWGQGTQVTVSS | high polyreactivity
QVQLVESGGGLVQAGGSLRLSCAASGSTFWDYTMGWYRQAPGKERELVAAINYSDGSTYYADSVKGRFTISRDNAKNTVYLQMNSLKPEDTAVYYCAAGSDPTGRRYDYWGQGTQVTVSS | low polyreactivity
QVQLVESGGGLVQAGGSLRLSCAASGSTFWEYVMGWYRQAPGKERELVAAISDSGGSTYYADSVKGRFTISRDNAKNTVYLQMNSLKPEDTAVYYCNADWSWYNYYDFDYWGQGTQVTVSS | low polyreactivity
QVQLVESGGGLVQAGGSLRLSCAASGSTFWFYAMGWYRQAPGKERELVAANSRSSGSTYYADSVKGRFTISRDNAKNTVYLQMNSLKPEDTAVFSCAAVEPDRDYGYWGQGTQVTVSS | low polyreactivity
QVQLVESGGGLVQAGGSLRLSCAASGSTFWFYAMGWYRQAPGKERELVATITIGGRTYADSVKGRFTISRDNAKNTVYLQMNTLKPEDTAVYYCAARRGRLEYVNGRYDYWGQGTQVTVSS | low polyreactivity
QVQLVESGGGLVQAGGSLRLSCAASGSTFWGYGMGWYRQAPGKERELVATINQSAGSTYYADSVKGRFTISRDNAKNTVYLQLNSLNPEDPAAYYCATDLIQGAAPFRYDYWGQGTQVTVSS | low polyreactivity
QVQLVESGGGLVQAGGSLRLSCAASGSTFWGYTMGWYRQAPGKERELVAAITGSGGSTNYADSVKGRFTISRDNANNTVYLQMNSLKPEDTAVYYCATQGITPSNSYDYWGQGTQVTVSS | low polyreactivity
QVQLVESGGGLVQAGGSLRLSCAASGSTFWHNAMGWYRTAHGKERELVAGISSIGGRTYYADSVKGRFTISRDNAKNTVYLQMNSLKQEDTAVYYCAARYRRTIPWFAPGTDHNYWGQGTQVTVSS | high polyreactivity
QVQLVESGGGLVQAGGSLRLSCAASGSTFWHYAMGWYRQAPGKERELVAAISSGGGRTYYADSVKGRFTISRDNAKNTVYLQMNSLKPEDTAVYYCAARYYFYDYWGQGTQVTVSS | high polyreactivity
QVQLVESGGGLVQAGGSLRLSCAASGSTFWINTMGWYRQAPGKERELVAAITRSGGNTYYADSVKGRFTISRDNAKNTVYLQMNSLKPEDTAVYYCAAAYTRKYVTHGYWGQGTQVTVSS | high polyreactivity
QVQLVESGGGLVQAGGSLRLSCAASGSTFWIYAMGWYRQPPGKERELVAAISWSTGRTYYADSVKGRFTISRDNAKNTVYLQMNSLKPEDTAVYYCNAGPQHNTLKLFYYWGQGTQVTVSS | low polyreactivity
QVQLVESGGGLVQAGGSLRLSCAASGSTFWLNAMGWYRQAPGKEREYVAAITWSSGSTYYADSVKGRFTISRDNAKNTVYLQMNSLKPEDTAVYYCAADGRYVRIRGDYWGQGTQVTVSS | low polyreactivity
QVQLVESGGGLVQAGGSLRLSCAASGSTFWLYAIGWYRQAPGTERELVAAIRSGDRTNYADSVKGRFTISRDNAKKTVYLEMNSLKPEDTAVYYCAAVAYLNWTPQYYWGQGTQVTVSS | low polyreactivity
